Experimental data taken from PMC9544338, “Restoration of the GTPase activity and cellular interactions of Gαo mutants by Zn^2+ in GNAO1 encephalopathy models” (Science Advances, 2022).

Target: T1, Gαo-GFP (C-terminally tagged) wild type (human, UniProt P09471 1-354)
T1 construct: Gαo (GNAO1); also called WT Gαo; source: N2a cells, transfected, in lysate; not shown: GFP, C-terminal, kept
Assay: co-IP; N2a cells cotransfected with His6-RGS19 and Gαo-GFP (C-terminally tagged) variants, treated with 1 μM ZPT for 3 hours before IP of Gαo with a nanobody against GFP; Western blot; fold against DMSO-treated cells
Conditions: partners not purified

T1 sequence (P09471 whole entry): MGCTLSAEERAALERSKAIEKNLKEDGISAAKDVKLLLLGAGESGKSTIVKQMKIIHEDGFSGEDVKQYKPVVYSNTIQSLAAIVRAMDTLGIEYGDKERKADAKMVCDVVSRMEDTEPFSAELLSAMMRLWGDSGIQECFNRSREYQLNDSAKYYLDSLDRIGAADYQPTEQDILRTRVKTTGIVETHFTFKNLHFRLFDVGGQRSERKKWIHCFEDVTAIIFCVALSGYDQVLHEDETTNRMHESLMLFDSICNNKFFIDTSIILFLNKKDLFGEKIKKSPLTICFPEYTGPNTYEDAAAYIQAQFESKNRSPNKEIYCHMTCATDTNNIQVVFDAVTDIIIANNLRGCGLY

fold increase of the interaction by ZPT over DMSO: ~2 fold
B1: His6-RGS19 (natural protein, UniProt P49795 1-217, looked up)
chain: MPTPHEAEKQITGPEEADRPPSMSSHDTASPAAPSRNPCCLCWCCCCSCSWNQERRRAWQASRESKLQPLPSCEVCATPSPEEVQSWAQSFDKLMHSPAGRSVFRAFLRTEYSEENMLFWLACEELKAEANQHVVDEKARLIYEDYVSILSPKEVSLDSRVREGINKKMQEPSAHTFDDAQLQIYTLMHRDSYPRFLSSPTYRALLLQGPSQSSSEA
notes: RGS19 (regulator of G protein signaling 19); plasmid previously described; source: N2a cells, transfected, in lysate
